Molecular target: the molecule itself
Assay: SEC; Superose 6 HR 10/300, 50 mM Tris-HCl pH 7.4, 150 mM NaCl, 1 mM DTT; purified proteins run alone or as a complex formed from equimolar amounts

B1: rabbit reticulocyte lysate Hsp90 (natural protein)
chain: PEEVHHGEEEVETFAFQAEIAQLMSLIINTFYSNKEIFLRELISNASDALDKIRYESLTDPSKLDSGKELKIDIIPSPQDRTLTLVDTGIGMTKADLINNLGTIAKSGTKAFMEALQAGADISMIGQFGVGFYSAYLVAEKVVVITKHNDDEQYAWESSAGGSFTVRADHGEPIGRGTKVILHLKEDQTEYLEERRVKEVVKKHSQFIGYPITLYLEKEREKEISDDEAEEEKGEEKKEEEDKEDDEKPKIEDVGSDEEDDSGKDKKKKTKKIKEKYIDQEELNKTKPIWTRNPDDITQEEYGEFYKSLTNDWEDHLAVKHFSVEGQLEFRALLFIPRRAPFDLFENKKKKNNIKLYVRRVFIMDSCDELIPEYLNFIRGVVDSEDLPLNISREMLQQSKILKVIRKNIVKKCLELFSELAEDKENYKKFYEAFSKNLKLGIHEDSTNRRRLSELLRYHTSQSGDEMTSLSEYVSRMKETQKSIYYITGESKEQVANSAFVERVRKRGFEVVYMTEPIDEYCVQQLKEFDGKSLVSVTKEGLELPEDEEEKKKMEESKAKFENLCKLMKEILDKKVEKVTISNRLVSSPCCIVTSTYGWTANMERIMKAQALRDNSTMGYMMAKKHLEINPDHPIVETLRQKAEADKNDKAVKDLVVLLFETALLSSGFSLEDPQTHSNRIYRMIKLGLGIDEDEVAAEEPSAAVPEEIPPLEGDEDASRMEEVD
- stoichiometry N: 2
